The data set concerns CsrA-His6. The data set is described as follows: EMSA. The following applies: 10 mM MgCl2; apparent Kd, linear regression (54.7 nM in Fig. S5); 0.5 nM labeled RNA, 0-400 nM CsrA, 10 mM MgCl2, 100 mM KCl, 32.5 ng total yeast RNA, 20 mM DTT, 7.5% glycerol, 4 U SUPERasin, 37 C 30 min; native PAGE in 1X …. A general note: Mobility shift assays separate free from complexed probe on a gel.

Data on 1 substance can be found in article PMC10277598.

As for hflK leader RNA (-86 to +48), the Kd came out at 0.055 µM.
